This passage reports binding result and EC50 results from patent publication US20210388118A1 (ZHEJIANG SHIMAI PHARMACEUTICAL, published 2021).

For orientation: EC50 means the concentration that produces a half-maximal response.

Experiment [1] addresses T1, human EGFR on cells (HCT116, A549, A431, HT29) (human, UniProt P00533 25-1210).
T1 construct: whole, on cells; also called cell surface EGFR; cell-surface EGFR
The experiment can be described thus: flow cytometry on A549 cells, Fab at 100 nM. The procedure: To measure the binding of SMET5 Fab to cell surface EGFR, about 5×10⁵ cells were incubated with 100 nM antibody on ice for 1 h. The cells were washed once with PBS containing 0.1% bovine serum albumin (PBSA) and resuspended in 200 μl PBSA. Then 5 μl anti-His-PE conjugate was added and incubated for 30 min. The cells were washed once with PBSA and then used for flow cytometry analysis.

Experiment [2] has as its target T2, recombinant human EGFR (human, UniProt P00533 25-645).
T2 construct: Bought protein; construct not described; also called hEGFR
The experiment in a line: ELISA, recombinant human EGFR coated, Fab. The procedure: (§1) ELISA was performed according to standard protocols. Briefly, recombinant human or cynomolgus EGFR was coated on Corning EIA/RIA high-binding 96-well plates (Corning Inc.) at 50 ng per well overnight at 4° C. and blocked with 3% nonfat milk in PBS (pH7.4). Fivefold serially diluted antibodies were added and incubated at room temperature for 2 hours. The plates were washed with PBS containing 0.05% Tween 20. Bound Fab and IgG1s were detected by HRP-conjugated anti-FLAG tag antibody and HRP-conjugated anti-human IgG (Fc-specific) antibody, respectively. The assay was developed at room temperature with TMB substrate (Sigma-Aldrich) and monitored at 450 nm with a microplate reader. The half-maximal binding (EC₅₀) was calculated by fitting the data to the Langmuir adsorption isotherm.
(In general: An ELISA detects its analyte on a solid surface through an enzyme-linked reagent.)

The target of experiment [3] is T2, recombinant human EGFR. The experiment in a line: ELISA, recombinant human EGFR coated. The procedure: as §1
For experiment [4], the target named is T3, recombinant cynomolgus EGFR (cynomolgus, UniProt A0A2K5WK39 25-645).
T3 construct: Bought protein; construct not described
The experiment in a line: ELISA, recombinant cynomolgus EGFR coated. The procedure: as §1

Experiment [5] has as its target T2, recombinant human EGFR. The experiment can be described thus: ELISA, recombinant EGFR coated. The procedure: as §1
Experiment [6] concerns the target T1, human EGFR on cells (HCT116, A549, …). The experiment in a line: flow cytometry on A549 cells, 2 µg/mL. The procedure:
To measure the binding of IgG1 s of SMET5 variants to cell surface EGFR, about 5×10⁵ cells were incubated with 2 μg mL⁻¹ antibodies on ice for 1 h. The cells were washed once with PBSA and resuspended in 200 μl PBSA. Then 5 μ1 goat F(ab′)2 anti-human IgG (γ)-FITC conjugate was added and incubated for 30 min. The cells were washed once with PBSA and then used for flow cytometry analysis.
On the technique in general: Flow cytometry measures light scatter and fluorescence of single cells or particles in a stream.

B1: SMET5 Fab (Fab, V domains shown)
VH: EVQLVETGGGVVQPGRSLRLSCAASGFTFSSYAMHWVRQAPGKGLEWVAVISYDGSNKYYADSVKGRFTISRDNSKNTLYLQMNSLRAEDTAVYYCARGYVARGDFDYWGQGTLVTVSS
VL: DIQMTQSPSTLSASVGDRVTITCRASQTVDSWLAWYQQKPGKAPKLLIYATSSLQSGVPSRFSGSGSGTDFTLTISSLQPEDFATYYCQQGHIAPHTFGQGTTLEIK
notes: Human Fab from a phage library, expressed in E. coli, His-tagged and detected by anti-FLAG; also called SMETS
Regarding B1, the binding result in experiment [1] and in experiment [2] was “binds” each time.

B2: SMET5.3 Fab (Fab, V domains shown)
VH: B1 VH
VL: DIQLTQSPSTLSASVGDRVTITCRSNQTADSWLAWYQQKPGKAPNLLIYAASNLQSGVPSRFSGSGSGTDFTLTISSLQPEDFATYYCQQSYSTPFMFTFGQGTKLEIK
notes: His-tagged Fab
For B2, the binding result in experiment [2] is “binds”.

B3: SMET5.2 IgG1 (antibody, V domains shown)
VH: B1 VH
VL: DVVMTQSPSTLSASVGDRVTITCRASQSMSRWLAWYQQKPGKGPKLLIYATSTLQSGVPSRFSGSGSGTEFTLTISSLQPEDFATYYCQQLDSFPFSFTFGPGTKVDLKR
notes: Human IgG1 from 293FS cells
Turning to B3, the values for the EC50 in experiment [3] and in experiment [4] were 1.4 nM and 0.76 nM, respectively.

B4: SMET5 IgG1 (antibody, V domains shown)
VH: B1 VH
VL: DIQMTQSPSTLSASVGDRVTITCRASQTVDSWLAWYQQKPGKAPKLLIYATSSLQSGVPSRFSGSGSGTDFTLTISSLQPEDFATYYCQQGHIAPHTFGQGTTLEIKR
notes: Human IgG1 from 293FS cells; also called SMETS IgG1
With B4, the binding result in experiment [5] and in experiment [6] was “binds” throughout.

B5: SMET5.3 IgG1 (antibody, V domains shown)
VH: B1 VH
VL: DIQLTQSPSTLSASVGDRVTITCRSNQTADSWLAWYQQKPGKAPNLLIYAASNLQSGVPSRFSGSGSGTDFTLTISSLQPEDFATYYCQQSYSTPFMFTFGQGTKLEIKR
notes: Human IgG1 from 293FS cells
With B5, the binding result in experiment [5] and in experiment [6] was “binds” throughout.

B6: SMET5.4 Fab (Fab, V domains shown)
VH: B1 VH
VL: DIQLTQSPSSVSASVGDRVTITCRASQGISSWLAWYQQKPGKAPKLLIYAASALQSGVPSRFSGSGSGTEFTLTIYDLQPDDFATYFCQQYDTFLWTFGQGTKVEIK
notes: His-tagged Fab
With B6, the binding result in experiment [2] is “binds”.
